According to the supplement of paper PMC7125110:
± gives the standard error. Variants at the floor of the assay were thinned out.

B1: glmS ribozyme (parent)
chain: AUAAAAGCGCCAGAACUACAGAAAUGUAGUUGACGAGGAGGAGGUUUAUCGAAUUUUCGGCGGAUGCCUCCAAA

Legend:
Conditions in all cases: with glucosamine-6-phosphate
[1] = variants of: B1; test: self-cleavage kobs at 40 uM GlcN6P; higher = faster cleavage; RNA array
Procedure, shortened: (§1)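 The measurements used barcoded ribozyme variants on sequenced MiSeq chips, transcribed in situ by E. coli RNA polymerase and tracked at 37 °C with a hybridised Cy3 probe. Glucosamine-6-phosphate, 40 μM to 10 mM in HEPES/KCl/Mg(OAc)2 buffer, was flowed in while tiles were imaged over ~14 h. Baseline-normalised signals, also normalised to non-cleaving reference variants, gave per-tile medians that were fit to one- or two-exponential decays for kobs. kcat and KM resulted from weighted Michaelis–Menten fits across concentrations.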

[2] = variants of: B1; test: self-cleavage kobs at 10000 uM GlcN6P; higher = faster cleavage; RNA array
Procedure, shortened: as §1

[3] = variants of: B1; test: self-cleavage kobs at 160 uM GlcN6P; higher = faster cleavage; RNA array
Procedure, shortened: as §1

[4] = variants of: B1; test: self-cleavage kobs at 640 uM GlcN6P; higher = faster cleavage; RNA array
Procedure, shortened: as §1

[5] = variants of: B1; test: self-cleavage kobs at 2500 uM GlcN6P; higher = faster cleavage; RNA array
Procedure, shortened: as §1

Variant	self-cleavage kobs at 40 uM GlcN6P [1] [s⁻¹]	self-cleavage kobs at 10000 uM GlcN6P [2] [s⁻¹]	self-cleavage kobs at 160 uM GlcN6P [3] [s⁻¹]	self-cleavage kobs at 640 uM GlcN6P [4] [s⁻¹]	self-cleavage kobs at 2500 uM GlcN6P [5] [s⁻¹]
G29C A39C A48C G60A	< 1e-05	< 1e-05	–	–	–
A15U U47C C61U	< 1e-05	< 1e-05	–	–	–
C16A A36C G51A A53U U69G	6.48e-05 ± 2.5e-05	4.91e-05 ± 1.6e-05	–	–	–
C16U C71G	6.56e-05 ± 7.6e-06	0.000726 ± 0.0001	0.00019 ± 2.6e-05	0.000313 ± 4.5e-05	0.000215 ± 3.4e-05
G26U C50G	4.71e-05 ± 1.9e-05	3.96e-05 ± 1.3e-05	–	–	–
C16G G37A C68U	< 1e-05	–	–	–	–
C16A G51U A64C	< 1e-05	< 1e-05	–	–	< 1e-05
G29A U56A G63C	< 1e-05	–	–	–	–
C16G U31C U45C	< 1e-05	–	–	–	–
C16U C34A A39U A52U C70A	< 1e-05	–	–	< 1e-05	–
G29A C34A	< 1e-05	< 1e-05	< 1e-05	< 1e-05	< 1e-05
G29A A39U U69A	< 1e-05	–	–	–	–
C16U U49C	< 1e-05	–	< 1e-05	< 1e-05	< 1e-05
C16A G29U U31C	3.38e-05 ± 1.4e-05	0.000493 ± 0.00013	–	–	–
C16U U56G	0.000579 ± 9.9e-05	0.0241 ± 0.0047	0.000979 ± 0.0002	0.00302 ± 0.00067	0.00709 ± 0.0016
C16U U56A	0.000484 ± 9.4e-05	0.0273 ± 0.0079	0.000861 ± 0.00013	0.00448 ± 0.0011	0.00493 ± 0.0012
C16U C50U	< 1e-05	0.000106 ± 2e-05	–	–	5.3e-05 ± 1.3e-05
C16G G40U C58G	< 1e-05	–	–	–	< 1e-05
C16A G37C A48U U49C A52G G62C	< 1e-05	< 1e-05	–	–	–
C16U U31A	0.000621 ± 7.9e-05	0.0168 ± 0.0026	0.000862 ± 0.00014	0.00468 ± 0.00061	0.00634 ± 0.0017
A15U A39U U46A	< 1e-05	–	–	–	–
C16U G32U G40A C71G	< 1e-05	0.0002 ± 2.8e-05	–	–	–
G26A A39U G40C	5.34e-05 ± 1.4e-05	–	–	0.000262 ± 8.2e-05	0.000935 ± 0.00028
A15G U54A C71A	0.000174 ± 5.4e-05	0.00522 ± 0.0014	–	–	–

Variant	self-cleavage kobs at 40 uM GlcN6P [1] [s⁻¹]	self-cleavage kobs at 10000 uM GlcN6P [2] [s⁻¹]	self-cleavage kobs at 160 uM GlcN6P [3] [s⁻¹]	self-cleavage kobs at 640 uM GlcN6P [4] [s⁻¹]	self-cleavage kobs at 2500 uM GlcN6P [5] [s⁻¹]
C16U C34A	< 1e-05	–	–	–	–
G29A U49C U69A	< 1e-05	< 1e-05	–	–	–
C16U U30G G32A U57A C61U	< 1e-05	–	–	–	< 1e-05
C16G U54G G60A C70A	< 1e-05	–	–	0.000647 ± 0.0003	3.79e-05 ± 1.7e-05
A15G U30G C70U	0.000184 ± 5.6e-05	0.0318 ± 0.013	–	0.00102 ± 0.00026	–
C16G U30G C61G	< 1e-05	< 1e-05	–	–	–
A15U U56A	0.000156 ± 3.4e-05	0.00509 ± 0.00093	0.000209 ± 4.3e-05	0.00152 ± 0.00021	0.00224 ± 0.00059
C16A G43U C68G C71U	< 1e-05	–	–	–	–
A18G C70A	4.53e-05 ± 2.1e-05	0.000432 ± 0.00014	–	–	–
C16A U30A A33G U55C	< 1e-05	–	–	–	–
A15U C34G G66U C71U	< 1e-05	< 1e-05	–	–	–
A15U G43A G44U G62A	< 1e-05	< 1e-05	–	–	–
G29A G43C	< 1e-05	< 1e-05	< 1e-05	< 1e-05	–
C16G C70U	0.000111 ± 1.4e-05	0.00521 ± 0.001	0.000359 ± 6.2e-05	0.000455 ± 8e-05	0.000561 ± 9e-05
G29C A42U U65C	< 1e-05	< 1e-05	–	–	< 1e-05
C16A A52C	< 1e-05	< 1e-05	< 1e-05	< 1e-05	–
C16U A39C	0.000107 ± 1.4e-05	0.00545 ± 0.0006	–	–	0.00222 ± 0.00082
C16U U30A U31G A53U G59U	< 1e-05	–	–	–	< 1e-05
C16U C50G G62A C67G	6.99e-05 ± 1.9e-05	9.28e-05 ± 1.6e-05	–	0.000337 ± 7.8e-05	–
C16U G43C	< 1e-05	< 1e-05	–	–	–
C19A A33G A36G G40A A42G G62U G63A C71A	< 1e-05	–	–	–	< 1e-05
C16U G41A G59U	< 1e-05	< 1e-05	–	< 1e-05	< 1e-05
C16G G44U	< 1e-05	2.26e-05 ± 1e-05	< 1e-05	–	–
C16G G35A	< 1e-05	< 1e-05	< 1e-05	< 1e-05	–

Variant	self-cleavage kobs at 40 uM GlcN6P [1] [s⁻¹]	self-cleavage kobs at 10000 uM GlcN6P [2] [s⁻¹]	self-cleavage kobs at 160 uM GlcN6P [3] [s⁻¹]	self-cleavage kobs at 640 uM GlcN6P [4] [s⁻¹]	self-cleavage kobs at 2500 uM GlcN6P [5] [s⁻¹]
C16U G40A G62A U69A	< 1e-05	–	–	–	–
A15U A36G U69G	3.94e-05 ± 1.7e-05	–	–	–	–
G29A G35A C68G	0.000947 ± 0.00027	0.000106 ± 3.5e-05	–	–	–
G21U U46A	6.35e-05 ± 2.2e-05	0.00269 ± 0.00086	–	–	0.00271 ± 0.0012
A15G U54A G62C U65A	< 1e-05	< 1e-05	–	< 1e-05	< 1e-05
G29C C58G	< 1e-05	4.93e-05 ± 1.5e-05	–	–	6.23e-05 ± 2.1e-05
C19A A53U	0.000466 ± 8.9e-05	0.0123 ± 0.0028	–	0.00276 ± 0.0012	–
C16A A39U G51U	< 1e-05	–	–	–	–
C16U G29C G37A G44A	< 1e-05	–	–	–	–
C16U A33G	< 1e-05	< 1e-05	–	–	–
C16U G38A	< 1e-05	–	< 1e-05	< 1e-05	< 1e-05
C16G G41C C68G	< 1e-05	< 1e-05	–	–	–
C16U U31C A36G G41C	< 1e-05	< 1e-05	–	–	< 1e-05
A15U A42C C68G	< 1e-05	–	–	–	–
A15U C50G	3.42e-05 ± 8.1e-06	–	8.86e-05 ± 1.4e-05	0.000494 ± 0.00023	7.94e-05 ± 1.4e-05
G29A G35C A39G G41U G43C G62A A64U	< 1e-05	< 1e-05	–	< 1e-05	< 1e-05
C16U U31C G35A G41A G62U	< 1e-05	–	–	< 1e-05	–
C19U	0.00125 ± 0.00046	–	0.00445 ± 0.0011	0.00527 ± 0.0011	0.0229 ± 0.0083
G29C A48U	< 1e-05	–	< 1e-05	–	–
C16A G40U A48U	< 1e-05	< 1e-05	–	–	–
G29A C50G A53U G66U	5.27e-05 ± 2.6e-05	–	–	–	–
A15G U31C	0.000207 ± 3.4e-05	0.0123 ± 0.0028	0.00035 ± 8.7e-05	0.00208 ± 0.00026	0.00542 ± 0.0013
G29A C34U U47G A48G C67G	0.000265 ± 0.0001	7.2e-05 ± 3.2e-05	–	–	–
A15U U31A G32A A36U U57A C58G C71U	5.17e-05 ± 2.1e-05	0.000109 ± 2.6e-05	–	–	–

Variant	self-cleavage kobs at 40 uM GlcN6P [1] [s⁻¹]	self-cleavage kobs at 10000 uM GlcN6P [2] [s⁻¹]	self-cleavage kobs at 160 uM GlcN6P [3] [s⁻¹]	self-cleavage kobs at 640 uM GlcN6P [4] [s⁻¹]	self-cleavage kobs at 2500 uM GlcN6P [5] [s⁻¹]
A15U C16A G40A C68U U69A	< 1e-05	< 1e-05	–	–	–
C16U G32C G38C	< 1e-05	–	–	–	–
G29A A33G C34G C67U	< 1e-05	–	–	–	–
C16U A42U G62A C67A	< 1e-05	< 1e-05	–	–	–
C16A G43C	< 1e-05	< 1e-05	–	< 1e-05	–
C16A G43A	< 1e-05	–	–	–	–
G29A U54C	0.000148 ± 3.6e-05	–	0.000257 ± 7e-05	0.000813 ± 0.00033	0.00138 ± 0.00056
C16A A36G	< 1e-05	< 1e-05	< 1e-05	< 1e-05	–
C16U G40A	0.000204 ± 2e-05	0.00622 ± 0.00083	0.000448 ± 7e-05	0.000996 ± 0.00017	0.00398 ± 0.00098
A15U A42G G62U	< 1e-05	< 1e-05	–	–	< 1e-05
C19A U56G C68U	0.000112 ± 3.6e-05	0.000435 ± 9.2e-05	–	–	0.00041 ± 7.6e-05
C16U U69C	0.000407 ± 8.8e-05	0.0036 ± 0.00088	0.000359 ± 9e-05	0.000778 ± 0.00013	0.000683 ± 0.00014
G29A G66A	7.16e-05 ± 1.8e-05	0.00305 ± 0.00076	–	–	–
C16U G29C	0.000447 ± 6.3e-05	0.0179 ± 0.0033	0.000622 ± 9.5e-05	0.00244 ± 0.00032	0.00422 ± 0.00072
C16A C34G	< 1e-05	–	–	< 1e-05	–
A15U A36U G60A	< 1e-05	–	–	–	–
A15G U55A	0.000962 ± 0.00014	0.0387 ± 0.0094	0.00144 ± 0.00025	0.0107 ± 0.0017	–
C16U A48U G62U	< 1e-05	< 1e-05	–	< 1e-05	–
G21A	0.00134 ± 0.00021	0.0758 ± 0.037	0.00268 ± 0.00063	0.00836 ± 0.0012	0.00839 ± 0.0024
C16G A42G	0.000233 ± 5.6e-05	0.00496 ± 0.001	0.000208 ± 9.6e-05	0.000804 ± 0.0003	–
C16G A42U	< 1e-05	–	< 1e-05	–	–
A15U G60U	< 1e-05	< 1e-05	< 1e-05	< 1e-05	< 1e-05
G29A A48U U54A	< 1e-05	3.57e-05 ± 1.5e-05	–	–	–
C19A G51A	< 1e-05	< 1e-05	–	–	–
